The results in this text go back to publication PMC9336126 (Communications Biology, 2022).

The target of assay [1] is T1, SARS-CoV-2 spike receptor-binding domain (RBD), residues 333-529 (SARS-CoV-2 ancestral (Wuhan-Hu-1, …, UniProt P0DTC2)).
T1 construct: also called SARS-CoV-2 RBD; wildtype RBD
Nature of the assay: crystal structure. To be noted: both partners purified.

In assay [2] the target is T2, SARS-CoV-2 WT RBD (Acro Biosystems, Cat #SPD-C52H3) (SARS-CoV-2 ancestral wildtype, UniProt P0DTC2).
T2 construct: also called wildtype RBD; ancestral wildtype SARS-CoV-2 RBD; source: bought: Acro Biosystems
Nature of the assay: ELISA. To be noted: both partners purified.

B1: ADI-62113 Fab (Fab, V domains shown)
VH: QVQLQQSGAEVKKPGASVKLSCKASGYTFSVFPIHWVRQAPGQRLEWMGWHNAGDGDTKYSQKFQGRVTIISDTSASTAYMELSSLKSEDTAVYYCARAARPYYDRRGYFFRADYFQHWGQGTLVTVSS
VL: DIQVTQSPSSLSASVGDRVTITCQASQDIKNSLNWYQQKPGKAPKLLISDASNLETGVPSRFSGNGSGTDFTFTISSLQPEDIATYYCQQYDNLITFGPGTKVEIK
Consider B1, for which, in assay [1], the binding result is reported as “binds”.

B2: ADI-62113 IgG (antibody, V domains shown)
VH: QVQLQQSGAEVKKPGASVKLSCKASGYTFSVFPIHWVRQAPGQRLEWMGWHNAGDGDTKYSQKFQGRVTIISDTSASTAYMELSSLKSEDTAVYYCARAARPYYDRRGYFFRADYFQHWGQGTLVTVSS
VL: DIQVTQSPSSLSASVGDRVTITCQASQDIKNSLNWYQQKPGKAPKLLISDASNLETGVPSRFSGNGSGTDFTFTISSLQPEDIATYYCQQYDNLITFGPGTKVEIK
Regarding B2, the binding result in assay [2] is on record as “binds”.
